{"source": "IntAct's records for PubMed 19359471", "parents": {"B1": {"name": "Anterior gradient protein 2 homolog (Homo sapiens), O95994 (parent)", "chain": "MEKIPVSAFLLLVALSYTLARDTTVKPGAKKDTKDSRPKLPQTLSRGWGDQLIWTQTYEEALYKSKTSNKPLMIIHHLDECPHSQALKKVFAENKEIQKLAEQFVLLNLVYETTDKHLSPDGQYVPRIMFVDPSLTVRADITGRYSNRLYAYEPADTALLLDNMKKALKLLKTEL"}}, "data": [{"variants_of": "B1", "settings": "with muc2_human MUC2, Q02817", "values": [{"variant": "C81S", "effect of a mutation on the interaction": "disrupting interaction"}]}]}
